# Starred links: 1 amine or outer side, 2 acyl side, 3 side chain; linkers in the order of their positions; H or OH if unused. Non-standard residues stand in square brackets, D forms with d. *: point of attachment. Palmitoyl = CCCCCCCCCCCCCCCC(=O)*; tBuAla = CC(C)(C)C[C@H](N)C(=O)O; Suc = O=C(CCC(=O)[*:2])[*:1]; Isovaleryl = CC(C)CC(=O)*; Pentanoyl = CCCCC(=O)*
# B1: peptide 14 (peptide)
# peptide: Pentanoyl-ANYAALIEALIRAAQEQQEKNEAALR-NH2
# SMILES: CCCCC(=O)N[C@@H](C)C(=O)N[C@@H](CC(N)=O)C(=O)N[C@@H](Cc1ccc(O)cc1)C(=O)N[C@@H](C)C(=O)N[C@@H](C)C(=O)N[C@@H](CC(C)C)C(=O)N[C@H](C(=O)N[C@@H](CCC(=O)O)C(=O)N[C@@H](C)C(=O)N[C@@H](CC(C)C)C(=O)N[C@H](C(=O)N[C@@H](CCCNC(=N)N)C(=O)N[C@@H](C)C(=O)N[C@@H](C)C(=O)N[C@@H](CCC(N)=O)C(=O)N[C@@H](CCC(=O)O)C(=O)N[C@@H](CCC(N)=O)C(=O)N[C@@H](CCC(N)=O)C(=O)N[C@@H](CCC(=O)O)C(=O)N[C@@H](CCCCN)C(=O)N[C@@H](CC(N)=O)C(=O)N[C@@H](CCC(=O)O)C(=O)N[C@@H](C)C(=O)N[C@@H](C)C(=O)N[C@@H](CC(C)C)C(=O)N[C@@H](CCCNC(=N)N)C(N)=O)[C@@H](C)CC)[C@@H](C)CC
# B2: peptide 10 (peptide)
# peptide: Ac-ANYLALIEELIRAAQEQQEKNEAALR-NH2
# B3: peptide 11 (peptide)
# peptide: Suc-ANYLALIEAL[tBuAla]RAAQEQQEKNEAALR-NH2
# SMILES: CC[C@H](C)[C@H](NC(=O)[C@H](CC(C)C)NC(=O)[C@H](C)NC(=O)[C@H](CC(C)C)NC(=O)[C@H](Cc1ccc(O)cc1)NC(=O)[C@H](CC(N)=O)NC(=O)[C@H](C)NC(=O)CCC(=O)O)C(=O)N[C@@H](CCC(=O)O)C(=O)N[C@@H](C)C(=O)N[C@@H](CC(C)C)C(=O)N[C@@H](CC(C)(C)C)C(=O)N[C@@H](CCCNC(=N)N)C(=O)N[C@@H](C)C(=O)N[C@@H](C)C(=O)N[C@@H](CCC(N)=O)C(=O)N[C@@H](CCC(=O)O)C(=O)N[C@@H](CCC(N)=O)C(=O)N[C@@H](CCC(N)=O)C(=O)N[C@@H](CCC(=O)O)C(=O)N[C@@H](CCCCN)C(=O)N[C@@H](CC(N)=O)C(=O)N[C@@H](CCC(=O)O)C(=O)N[C@@H](C)C(=O)N[C@@H](C)C(=O)N[C@@H](CC(C)C)C(=O)N[C@@H](CCCNC(=N)N)C(N)=O
# B4: peptide 19 (peptide)
# peptide: Suc-ENYLALIEELIRKAQEQQEKNEAALR-NH2
# SMILES: CC[C@H](C)[C@H](NC(=O)[C@H](CC(C)C)NC(=O)[C@H](C)NC(=O)[C@H](CC(C)C)NC(=O)[C@H](Cc1ccc(O)cc1)NC(=O)[C@H](CC(N)=O)NC(=O)[C@H](CCC(=O)O)NC(=O)CCC(=O)O)C(=O)N[C@@H](CCC(=O)O)C(=O)N[C@@H](CCC(=O)O)C(=O)N[C@@H](CC(C)C)C(=O)N[C@H](C(=O)N[C@@H](CCCNC(=N)N)C(=O)N[C@@H](CCCCN)C(=O)N[C@@H](C)C(=O)N[C@@H](CCC(N)=O)C(=O)N[C@@H](CCC(=O)O)C(=O)N[C@@H](CCC(N)=O)C(=O)N[C@@H](CCC(N)=O)C(=O)N[C@@H](CCC(=O)O)C(=O)N[C@@H](CCCCN)C(=O)N[C@@H](CC(N)=O)C(=O)N[C@@H](CCC(=O)O)C(=O)N[C@@H](C)C(=O)N[C@@H](C)C(=O)N[C@@H](CC(C)C)C(=O)N[C@@H](CCCNC(=N)N)C(N)=O)[C@@H](C)CC
# B5: peptide 9 (peptide)
# peptide: Ac-ENYLALIEALIRAAQEQQEKNEAALL-NH2
# B6: peptide 13 (peptide)
# peptide: Suc-ANYLALIEALIRAAQEQQEKNEAALK(Palmitoyl)-NH2
# SMILES: CCCCCCCCCCCCCCCC(=O)NCCCC[C@H](NC(=O)[C@H](CC(C)C)NC(=O)[C@H](C)NC(=O)[C@H](C)NC(=O)[C@H](CCC(=O)O)NC(=O)[C@H](CC(N)=O)NC(=O)[C@H](CCCCN)NC(=O)[C@H](CCC(=O)O)NC(=O)[C@H](CCC(N)=O)NC(=O)[C@H](CCC(N)=O)NC(=O)[C@H](CCC(=O)O)NC(=O)[C@H](CCC(N)=O)NC(=O)[C@H](C)NC(=O)[C@H](C)NC(=O)[C@H](CCCNC(=N)N)NC(=O)[C@@H](NC(=O)[C@H](CC(C)C)NC(=O)[C@H](C)NC(=O)[C@H](CCC(=O)O)NC(=O)[C@@H](NC(=O)[C@H](CC(C)C)NC(=O)[C@H](C)NC(=O)[C@H](CC(C)C)NC(=O)[C@H](Cc1ccc(O)cc1)NC(=O)[C@H](CC(N)=O)NC(=O)[C@H](C)NC(=O)CCC(=O)O)[C@@H](C)CC)[C@@H](C)CC)C(N)=O
# B7: peptide 16 (peptide)
# peptide: Pentanoyl-ANYAALIEALIRKAQEQQEKNEAALR-NH2
# SMILES: CCCCC(=O)N[C@@H](C)C(=O)N[C@@H](CC(N)=O)C(=O)N[C@@H](Cc1ccc(O)cc1)C(=O)N[C@@H](C)C(=O)N[C@@H](C)C(=O)N[C@@H](CC(C)C)C(=O)N[C@H](C(=O)N[C@@H](CCC(=O)O)C(=O)N[C@@H](C)C(=O)N[C@@H](CC(C)C)C(=O)N[C@H](C(=O)N[C@@H](CCCNC(=N)N)C(=O)N[C@@H](CCCCN)C(=O)N[C@@H](C)C(=O)N[C@@H](CCC(N)=O)C(=O)N[C@@H](CCC(=O)O)C(=O)N[C@@H](CCC(N)=O)C(=O)N[C@@H](CCC(N)=O)C(=O)N[C@@H](CCC(=O)O)C(=O)N[C@@H](CCCCN)C(=O)N[C@@H](CC(N)=O)C(=O)N[C@@H](CCC(=O)O)C(=O)N[C@@H](C)C(=O)N[C@@H](C)C(=O)N[C@@H](CC(C)C)C(=O)N[C@@H](CCCNC(=N)N)C(N)=O)[C@@H](C)CC)[C@@H](C)CC
# B8: peptide 17 (peptide)
# peptide: Isovaleryl-ANYAALIEALIRAAQEQQEKNEAALR-NH2
# SMILES: CC[C@H](C)[C@H](NC(=O)[C@H](CC(C)C)NC(=O)[C@H](C)NC(=O)[C@H](CCC(=O)O)NC(=O)[C@@H](NC(=O)[C@H](CC(C)C)NC(=O)[C@H](C)NC(=O)[C@H](C)NC(=O)[C@H](Cc1ccc(O)cc1)NC(=O)[C@H](CC(N)=O)NC(=O)[C@H](C)NC(=O)CC(C)C)[C@@H](C)CC)C(=O)N[C@@H](CCCNC(=N)N)C(=O)N[C@@H](C)C(=O)N[C@@H](C)C(=O)N[C@@H](CCC(N)=O)C(=O)N[C@@H](CCC(=O)O)C(=O)N[C@@H](CCC(N)=O)C(=O)N[C@@H](CCC(N)=O)C(=O)N[C@@H](CCC(=O)O)C(=O)N[C@@H](CCCCN)C(=O)N[C@@H](CC(N)=O)C(=O)N[C@@H](CCC(=O)O)C(=O)N[C@@H](C)C(=O)N[C@@H](C)C(=O)N[C@@H](CC(C)C)C(=O)N[C@@H](CCCNC(=N)N)C(N)=O
# B9: peptide 7 (peptide)
# peptide: Suc-ANYLALIEALIRAAQEQQEKNEAALR-NH2
# SMILES: CC[C@H](C)[C@H](NC(=O)[C@H](CC(C)C)NC(=O)[C@H](C)NC(=O)[C@H](CCC(=O)O)NC(=O)[C@@H](NC(=O)[C@H](CC(C)C)NC(=O)[C@H](C)NC(=O)[C@H](CC(C)C)NC(=O)[C@H](Cc1ccc(O)cc1)NC(=O)[C@H](CC(N)=O)NC(=O)[C@H](C)NC(=O)CCC(=O)O)[C@@H](C)CC)C(=O)N[C@@H](CCCNC(=N)N)C(=O)N[C@@H](C)C(=O)N[C@@H](C)C(=O)N[C@@H](CCC(N)=O)C(=O)N[C@@H](CCC(=O)O)C(=O)N[C@@H](CCC(N)=O)C(=O)N[C@@H](CCC(N)=O)C(=O)N[C@@H](CCC(=O)O)C(=O)N[C@@H](CCCCN)C(=O)N[C@@H](CC(N)=O)C(=O)N[C@@H](CCC(=O)O)C(=O)N[C@@H](C)C(=O)N[C@@H](C)C(=O)N[C@@H](CC(C)C)C(=O)N[C@@H](CCCNC(=N)N)C(N)=O
# B10: peptide 8 (peptide)
# peptide: Ac-ENYLALIEALIRAAQEQQEKNEAALR-NH2
# B11: peptide 12 (peptide)
# peptide: Suc-[dA]NYLALIEALIRAAQEQQEKNEAAL[dR]-NH2
# SMILES: CC[C@H](C)[C@H](NC(=O)[C@H](CC(C)C)NC(=O)[C@H](C)NC(=O)[C@H](CCC(=O)O)NC(=O)[C@@H](NC(=O)[C@H](CC(C)C)NC(=O)[C@H](C)NC(=O)[C@H](CC(C)C)NC(=O)[C@H](Cc1ccc(O)cc1)NC(=O)[C@H](CC(N)=O)NC(=O)[C@@H](C)NC(=O)CCC(=O)O)[C@@H](C)CC)C(=O)N[C@@H](CCCNC(=N)N)C(=O)N[C@@H](C)C(=O)N[C@@H](C)C(=O)N[C@@H](CCC(N)=O)C(=O)N[C@@H](CCC(=O)O)C(=O)N[C@@H](CCC(N)=O)C(=O)N[C@@H](CCC(N)=O)C(=O)N[C@@H](CCC(=O)O)C(=O)N[C@@H](CCCCN)C(=O)N[C@@H](CC(N)=O)C(=O)N[C@@H](CCC(=O)O)C(=O)N[C@@H](C)C(=O)N[C@@H](C)C(=O)N[C@@H](CC(C)C)C(=O)N[C@H](CCCNC(=N)N)C(N)=O
# B12: peptide 15 (peptide)
# peptide: Pentanoyl-ANYLALIEALIRAAQEQQEKNEAALR-NH2
# SMILES: CCCCC(=O)N[C@@H](C)C(=O)N[C@@H](CC(N)=O)C(=O)N[C@@H](Cc1ccc(O)cc1)C(=O)N[C@@H](CC(C)C)C(=O)N[C@@H](C)C(=O)N[C@@H](CC(C)C)C(=O)N[C@H](C(=O)N[C@@H](CCC(=O)O)C(=O)N[C@@H](C)C(=O)N[C@@H](CC(C)C)C(=O)N[C@H](C(=O)N[C@@H](CCCNC(=N)N)C(=O)N[C@@H](C)C(=O)N[C@@H](C)C(=O)N[C@@H](CCC(N)=O)C(=O)N[C@@H](CCC(=O)O)C(=O)N[C@@H](CCC(N)=O)C(=O)N[C@@H](CCC(N)=O)C(=O)N[C@@H](CCC(=O)O)C(=O)N[C@@H](CCCCN)C(=O)N[C@@H](CC(N)=O)C(=O)N[C@@H](CCC(=O)O)C(=O)N[C@@H](C)C(=O)N[C@@H](C)C(=O)N[C@@H](CC(C)C)C(=O)N[C@@H](CCCNC(=N)N)C(N)=O)[C@@H](C)CC)[C@@H](C)CC
# Biological target: gp41 of HIV-1 strain HXB2D with mutation V38A (HIV-1 strain HXB2D, UniProt P04578)
# Experiment: cell-based or functional assay
row,Binder,"fold change in EC50, HIV-HXB2D V38A mutant [fold]"
1,B1,46
2,B2,50
3,B3,26
4,B4,22
5,B5,72
6,B6,2
7,B7,49
8,B8,75
9,B9,33
10,B10,46
11,B11,51
12,B12,18

# Reference: US20140357577A1, “HIV Membrane Fusion Inhibitors” (priority 2011, published 2014)
